Source: the supplement of paper PMC12042874
± gives the uncertainty stated by the source.

Test: amyloid nucleation score (Sup35N fusion, yeast selection) (log enrichment); library NNK2; higher = more nucleation; inactive = no reads after selection
Outline: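 Libraries of peptides of 20 random codons fused to Sup35N were expressed in psi-negative yeast and induced 24 hours with 100 μM copper sulfate. Selection was 7 days at 30°C on medium lacking adenine and uracil, and plasmid inserts were Illumina-sequenced before and after selection. Nucleation score is the DiMSum log enrichment of output over input reads, centred on the mode score of non-aggregating sequences, and sequences with under 100 input reads were left out.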

Substance | amyloid nucleation score
RHRRHLNHYAPTSSMIWTYS | 0.258 ± 0.65
VLPLGHWMAFMTREVCGADM | 0.514 ± 0.17
GLFWVCAGGGKVGEYRYSGV | 0.021 ± 0.39
PGCHWISASCGDVLDKGNTG | 0.501 ± 0.62
FSRTSPIRQMIWKFLDCQPA | -0.978 ± 0.41
VTKSRRFSFLYYVESLHNRC | 4.25 ± 0.048
RHKMWVFRT | inactive
RFWSMETEHDIIALVFASSV | 0.096 ± 0.49
CMLCARLHH | 4.13 ± 0.056
LEGGGGFSRAL | -0.651 ± 1.1
RTLYGALMIVWVS | 0.004 ± 1.1
KSRWRQRILVPIPWWARHVE | 0.239 ± 0.29
KLMVPA | 0.248 ± 0.28
SSLGIRNCVGTSYVMSPIIV | 0.178 ± 0.53
TVSKDDMTALVSAIMASNRW | 1.06 ± 0.32
NSAIVLHTSYIHFVFYSVFY | -0.403 ± 0.63
VLGGLCSVFGDDGTAYYSSS | 0.417 ± 0.36
NFKYHCRYWFFVFAKFKFHL | -1.42 ± 0.75
QDPFQIRLLVVLNFDNLYLW | 2.08 ± 0.1
GKGANARLCIRYDITAVEGT | 1.61 ± 0.44
ALPCRLISFFALVGWIVG | -0.088 ± 0.49
FCNVKLLLVGWCRVSVKKGV | 2.12 ± 0.28
TIRSCVNF | 1.41 ± 0.1
FLNFIFELSSWMDF | -1.6 ± 1.1
RYHDLGI | -0.093 ± 0.2

Substance | amyloid nucleation score
LDLDMRGKHFVFHHTVKHAI | 1.79 ± 0.14
ISIYIITVILFLVDALYMLR | -0.809 ± 1.1
LVMYGEDDD | -0.025 ± 1.1
TVWYCALSL | 10.61 ± 0.07
LAAKFCCQLSFGSFCDCIFR | 7.82 ± 0.084
FSGFYLWSVDFVMLLGAWAH | inactive
KLVDLKVRFDSHLDNLEVAL | -0.204 ± 0.46
WWWPSVWTCRM | -0.716 ± 0.78
CYVLFIRSDYGTWSMVH | 4.53 ± 0.051
QRCRFPYDTGSSTHSWTEVG | 0.614 ± 0.35
YSVIRS | -0.171 ± 0.34
RMFVLLNRPNGLSCKGMFRG | 0.446 ± 0.64
NFDVNSRWDTRTCFLSWLKQ | inactive
NMRHI | 0.75 ± 0.41
PKVVPMISRIAVPL | -0.788 ± 0.76
FLLNIDTFSLMRSVTANTLV | -0.697 ± 0.48
INFYIDIWISIRREGFAFRP | 1.97 ± 0.25
SWSRYGCGVYSDVGVTLLQF | 0.201 ± 0.63
VSFATRRSSNNILTGW | -0.557 ± 1.1
HWWLIIRDLKASRIDVRQWE | inactive
RQALVRILFSSSRIGGM | -0.857 ± 0.44
CQGVSYHYLTACRNKLCHES | 0.107 ± 0.79
FHMRFMMVFIRLKTRTKLIL | -0.797 ± 0.42
NGSYGSYMHFPEPIMSIFMY | inactive
NQYLSMRTAHSGEVYQPLVF | 0.859 ± 0.8

Substance | amyloid nucleation score
RQSIEISYLYISFGHKYR | 5.98 ± 0.083
TYCKFVNFYESVKER | 6.753 ± 0.037
MNFESNFRNTKCEIFIVIYN | 4.62 ± 0.11
VNVEYSSMHKLCAW | 0.201 ± 0.46
NLWVCFWSDSCFT | 8.089 ± 0.045
RVNSIAFI | -0.701 ± 0.56
QLNIHLMNLRI | 9.23 ± 0.056
TFTVKCTDGGSCF | 1.01 ± 0.24
RKSVWYCDIFIIEYPDFSYS | 2.07 ± 0.1
FVLSTVRLSAASAPMRFTHL | 0.468 ± 0.74
IDSADVSIVRCKTQVRRIMR | 5.62 ± 0.063
YCGLVWVSKYSVTRAFRRNV | -0.297 ± 0.39
TIDWTMSHCMI | -0.055 ± 0.56
NVLLKNLESPIFYRDMTTL | -0.252 ± 0.76
LCKYDGCMIAYGVLHSSSAG | 0.651 ± 0.26
KYSIGTETVHGCLQPLCPAH | -0.095 ± 0.46
RTNVWASDI | -0.32 ± 0.39
NLQLTFGS | -0.202 ± 0.21
GVQYRSGESGDSASYWRLGG | 0.628 ± 0.38
SFTFCARNSGLIGWSGDISS | 4.07 ± 0.1
WCSSKSLADSGRVMGANVYI | -1.02 ± 0.78
HEGIDVSMPHQDRTAADNLA | 0.409 ± 0.53
FIYLIMFCKMVQWTIAFFKA | -0.658 ± 0.64
RLLSGCLFGGSRA | -0.623 ± 0.76
IIINFRVAINDWGFLSVSID | 5.515 ± 0.027

Substance | amyloid nucleation score
VNVGKCNRTVGIWLLWKVNA | 0.584 ± 0.44
MNFWMILVKSETYFNDRRPY | 7.152 ± 0.061
KYFIASLDQFSYISVHNEVV | inactive
PNSRGLSQVNLSFVENRRWS | 3.84 ± 0.044
LWFDLSSTLPQM | 0.396 ± 0.62
SCYDVCPLCSHCRIGTKM | 1.92 ± 0.2
TISDTCHESRLDVMRNVPYM | 5.091 ± 0.043
DFYNRASLSYTSDVASGSPC | inactive
ADYLRDSFQRWLMEVGLDRR | 1.44 ± 0.26
EQYPNKPVRCEVRATATWGP | 0.245 ± 0.27
PDAIVSGVEHAKGTSDAALS | -0.15 ± 0.28
RCRHLLSMPLPVSFEMDGRG | 2.85 ± 0.099
SRIGVLPDNVDTSAKLAYRL | 6.95 ± 0.078
MYNRSRLSFA | -0.666 ± 1
WSPLSLVTIELLVQSVIDPF | -0.351 ± 0.48
SCHLLL | -0.891 ± 1.1
MTFAT | -1.51 ± 1.1
MAFVDISSANFRKITRDLLP | 0.82 ± 0.19
ESSFLLNHHT | -0.142 ± 0.79
DESIEYSDSGGSCSFPVSK | inactive
FSRCTSVEV | -0.699 ± 1
RLSWLLLKFNDQVWRLIGAG | 4.04 ± 0.054
MEIRTQLFVLVCSKNILGDS | -0.849 ± 1.1
QLVYCVNFVFFARVTNRSAR | 3.95 ± 0.06
DIHQFGCTHIGCVIGYCCRV | 8.504 ± 0.031

Substance | amyloid nucleation score
VMFTGHCVTRNDRDRLVLTY | -0.522 ± 0.76
TRCKHDDVW | 1.5 ± 0.33
GSSYNGNTRLTHVGRSVSVR | -0.632 ± 0.63
GVMRIHCGDREC | 0.8 ± 0.54
NPYKLTLPLTSLLLYSIPRA | -0.127 ± 1.1
VSRSSRWYNRIGMVRSVWNK | -0.139 ± 0.21
LLFLVCTSFNLDIQWNFALG | 4.76 ± 0.087
IIIGFWVCWNSIASWSIVGR | -1.78 ± 1.1
LYTKRSKY | -0.161 ± 1.1
LSLALDRQELAVHLFVLTCY | 0.829 ± 0.57
YCWMRRMKSLPGNMYVLAT | 0.25 ± 0.8
SLYDGRVVRMYSRH | 2.65 ± 0.1
LVMVWFLNLVFCFGDFNSNR | 0.74 ± 0.18
GGYGLICCYQMLEDSTKDMM | -0.603 ± 1.1
GRVKTYTVGFVNIIHFSWLG | 3.57 ± 0.053
CSSSNINRFS | 2.99 ± 0.12
SLAYRFRWKLGNKVKF | 2.02 ± 0.1
YWGIRVCSDFGIPEFRTS | 2.05 ± 0.12
MGGQLLSNECLHSDSFVCFH | 1.21 ± 0.47
SSFCNISAAGYFHIVMLRVV | -0.3 ± 0.5
AWVYSMRQVYQLNCLDQIMY | inactive
ALSYFTGCRF | 0.766 ± 0.47
VDREKKEKTLVDGTQMVTCL | 1.12 ± 0.32
HFFTQY | 2.95 ± 0.1
WYRPTSYRRKHKGDISLDLG | -0.226 ± 1.1

Substance | amyloid nucleation score
FNDRKYESCDSDDC | -1.99 ± 0.62
LWVSVLFKMHAYWLGLEPNS | 2 ± 0.15
RRCEGCN | -0.299 ± 1
WYHGSASCEYIGYVYPWHAA | 3.58 ± 0.064
NVLQLDPFFAYSVRCILGSE | inactive
RWYSTRCTVEFINATSIVRA | -0.531 ± 1.1
RKVVRLSHFLMCDCSRKPRR | -0.072 ± 0.76
VTCNPHGLSHD | inactive
RFRHNKWYCLLRLAG | 0.956 ± 0.33
EVVAISNTASICLYSNYKH | 5.04 ± 0.1
GFDLNFRYA | 4.43 ± 0.077
VCFRYGEYLNVKIF | -0.789 ± 0.63
FSFLHFVERLTGHLIYFSRF | inactive
NRFYIWRSDRNYTLVACRSK | -0.237 ± 0.79
GLGGTTFI | -1.04 ± 0.43
KAKIATKVSLFLLSGYVDLQ | -0.356 ± 0.65
LLVKF | 0.641 ± 0.74
LSTRLGNVSHFWLWTRSCMG | 1.04 ± 0.34
VTIGLNDFLTWDRWFYVFYG | -0.873 ± 0.25
FGVIICAMSCQKD | 7.501 ± 0.026
STRCCTRYVCRTAV | -0.158 ± 0.34
ESFARFIAM | -0.033 ± 0.55
SKSAPC | 0.39 ± 0.29
VKMLSLKSIHLSYFCECASW | 0.28 ± 0.21
LCVLLHVTEKLKANSTLSCV | -0.317 ± 1.1

Substance | amyloid nucleation score
RSSRVEYSCLDGRMRELRGS | -0.443 ± 0.48
NYCNDGVGCYS | 4.82 ± 0.067
SSQCRDVGEAGNHWCLSGSG | 2.8 ± 0.14
FLLDAPKLAEDEYPHGSDDN | inactive
WSEYRFRHIPKLKKCYQVD | 0.175 ± 0.32
EMLYTSFILSLWNNLDFILS | -0.452 ± 0.63
VFYTFMTSALGIRVTRSSCL | 1.12 ± 0.22
VWRPRTFLLIHYVVKDKRTP | -0.507 ± 0.79
GYRYHLWHVT | inactive
IVYYG | 0.801 ± 0.38
VSGDRLPSLFTCVRLLI | 0.492 ± 0.41
KGAMA | 0.539 ± 0.39
GTMDITYTY | 2.44 ± 0.11
VRSVGGTLASPWRAYGC | 0.527 ± 0.57
VSTKVGSSYEVVGYKVSHFG | -0.291 ± 0.76
TKRHE | 0.987 ± 0.58
GHLRYTIDTGTTSGSSDLMS | -0.842 ± 0.63
SVYCSNNNTFDAFYVEWVFA | inactive
TEGRVDPLCDERAILMVFDV | 0.768 ± 0.5
EYSNFVTNEYEWIVGPTWSS | 6.317 ± 0.026
PRFAYCSSIANKMMGVG | 2.36 ± 0.18
